In US20190263932A1 (Eli Lilly, published 2019):

T1: Rabbit TrkA Extracellular Domain (33-414) (rabbit)
T1 construct: SPR analyte; not shown: C-terminal polyhistidine tag (unknown length)
T1 chain: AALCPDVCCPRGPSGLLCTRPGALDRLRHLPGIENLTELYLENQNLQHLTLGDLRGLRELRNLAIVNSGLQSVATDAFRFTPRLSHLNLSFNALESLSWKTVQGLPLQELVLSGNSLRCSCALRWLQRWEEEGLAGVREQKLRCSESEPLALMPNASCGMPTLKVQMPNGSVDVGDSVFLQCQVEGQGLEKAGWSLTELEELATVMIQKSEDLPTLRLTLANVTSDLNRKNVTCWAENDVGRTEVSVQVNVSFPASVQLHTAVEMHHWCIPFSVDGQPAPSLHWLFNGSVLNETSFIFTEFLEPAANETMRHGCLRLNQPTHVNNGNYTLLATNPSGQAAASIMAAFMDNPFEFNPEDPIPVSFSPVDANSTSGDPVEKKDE

T2: Cynomolgus monkey TrkA Extracellular Domain (59-434) (cynomolgus monkey, UniProt P04629 35-414 (human entry))
T2 construct: SPR analyte
T2 chain: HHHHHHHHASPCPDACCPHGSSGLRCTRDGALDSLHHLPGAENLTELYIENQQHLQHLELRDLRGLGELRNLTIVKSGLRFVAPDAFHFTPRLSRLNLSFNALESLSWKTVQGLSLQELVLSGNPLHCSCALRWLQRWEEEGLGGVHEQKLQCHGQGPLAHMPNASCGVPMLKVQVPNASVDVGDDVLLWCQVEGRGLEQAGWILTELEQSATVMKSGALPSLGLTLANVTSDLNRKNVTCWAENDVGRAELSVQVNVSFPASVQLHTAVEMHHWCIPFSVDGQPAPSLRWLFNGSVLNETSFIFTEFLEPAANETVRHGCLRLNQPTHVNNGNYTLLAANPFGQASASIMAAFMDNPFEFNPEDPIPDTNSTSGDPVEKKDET


Columns and labels:
[1] = target: T3, recombinant human TrkA protein (human, UniProt P04629-2 34-407, limits assumed); experiment: NGF-blocking ELISA on coated human TrkA, 100 nM btNGF; mAb 20 nM
T3 sequence (P04629 other isoform, or with tags, fused parts or gaps limits assumed): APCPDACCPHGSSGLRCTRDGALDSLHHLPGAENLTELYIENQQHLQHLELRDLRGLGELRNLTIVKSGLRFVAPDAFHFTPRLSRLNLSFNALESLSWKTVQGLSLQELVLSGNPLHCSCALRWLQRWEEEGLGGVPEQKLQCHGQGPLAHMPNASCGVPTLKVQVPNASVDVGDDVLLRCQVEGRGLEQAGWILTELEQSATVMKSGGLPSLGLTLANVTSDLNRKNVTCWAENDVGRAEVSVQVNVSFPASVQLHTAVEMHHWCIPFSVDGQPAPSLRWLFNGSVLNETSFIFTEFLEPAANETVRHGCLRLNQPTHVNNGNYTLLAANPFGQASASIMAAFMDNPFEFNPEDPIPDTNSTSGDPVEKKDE

[2] = target: T1, Rabbit TrkA Extracellular Domain …; experiment: SPR, mAb captured on Protein A chip, 37 C
Procedure: (§1) The binding kinetics and affinity of exemplified antibodies to human, cynomolgus monkey, rat, mouse, and rabbit TrkA are determined as described below using a surface plasmon resonance assay on a BIACORE™ 8K instrument (GE Healthcare). Two different isoforms of human TrkA (isoform 1 and isoform 2) are evaluated along with human TrkB and human TrkC. […] All FC2 on all eight channels are set to capture approximately 89 response units (RU) of antibody at a flow rate of 10 μL/min. The antibody sample is prepared at 1 μg/mL by dilution into the running buffer. […] Before the analysis cycle, the chip is regenerated with 3 injections of glycine (pH ˜1.5) at 100 μL/min for a contact time of 15 seconds on FC1 and FC2 in order to clean the surface of the chip.

[3] = target: T4, Human TrkA Extracellular Domain Isoform 1 (33-414) (human, UniProt P04629 33-414); experiment: SPR, mAb captured on Protein A chip, 37 C
T4 construct: SPR analyte; also called Human TrkA Isoform 1
T4 sequence (P04629 other isoform, or with tags, fused parts or gaps): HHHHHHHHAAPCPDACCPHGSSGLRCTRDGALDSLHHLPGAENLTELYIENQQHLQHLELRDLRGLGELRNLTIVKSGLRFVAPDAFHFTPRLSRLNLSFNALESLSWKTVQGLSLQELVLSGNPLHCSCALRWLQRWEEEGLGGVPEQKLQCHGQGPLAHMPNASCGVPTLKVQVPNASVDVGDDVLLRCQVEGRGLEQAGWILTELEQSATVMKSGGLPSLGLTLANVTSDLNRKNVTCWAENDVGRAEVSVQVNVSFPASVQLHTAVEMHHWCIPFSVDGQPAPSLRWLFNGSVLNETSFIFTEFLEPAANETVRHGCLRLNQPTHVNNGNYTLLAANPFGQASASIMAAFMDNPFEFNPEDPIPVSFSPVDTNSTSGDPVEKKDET
Procedure: as §1

[4] = target: T5, Rat TrkA Extracellular Domain (33-411) (rat, UniProt P35739 33-417); experiment: SPR, mAb captured on Protein A chip, 37 C
T5 construct: SPR analyte
T5 sequence (P35739 other isoform, or with tags, fused parts or gaps): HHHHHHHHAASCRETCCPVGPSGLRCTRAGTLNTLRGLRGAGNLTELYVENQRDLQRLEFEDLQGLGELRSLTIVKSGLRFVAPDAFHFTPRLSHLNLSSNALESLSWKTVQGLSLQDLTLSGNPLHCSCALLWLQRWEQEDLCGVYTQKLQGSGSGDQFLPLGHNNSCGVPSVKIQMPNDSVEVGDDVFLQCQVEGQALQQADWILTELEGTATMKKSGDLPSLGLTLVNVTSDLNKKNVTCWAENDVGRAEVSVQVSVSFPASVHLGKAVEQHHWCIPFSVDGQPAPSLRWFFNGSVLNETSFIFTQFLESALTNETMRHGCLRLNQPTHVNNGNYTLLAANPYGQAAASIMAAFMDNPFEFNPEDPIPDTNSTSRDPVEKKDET
Procedure: as §1

[5] = target: T2, Cynomolgus monkey TrkA Extracellular …; experiment: SPR, mAb captured on Protein A chip, 37 C
Procedure: as §1

[6] = target: T6, Human TrkA Extracellular Domain Isoform 2 (33-408) (human, UniProt P04629 33-414); experiment: SPR, mAb captured on Protein A chip, 37 C
T6 construct: SPR analyte; also called Human TrkA Isoform 2
T6 sequence (P04629 other isoform, or with tags, fused parts or gaps): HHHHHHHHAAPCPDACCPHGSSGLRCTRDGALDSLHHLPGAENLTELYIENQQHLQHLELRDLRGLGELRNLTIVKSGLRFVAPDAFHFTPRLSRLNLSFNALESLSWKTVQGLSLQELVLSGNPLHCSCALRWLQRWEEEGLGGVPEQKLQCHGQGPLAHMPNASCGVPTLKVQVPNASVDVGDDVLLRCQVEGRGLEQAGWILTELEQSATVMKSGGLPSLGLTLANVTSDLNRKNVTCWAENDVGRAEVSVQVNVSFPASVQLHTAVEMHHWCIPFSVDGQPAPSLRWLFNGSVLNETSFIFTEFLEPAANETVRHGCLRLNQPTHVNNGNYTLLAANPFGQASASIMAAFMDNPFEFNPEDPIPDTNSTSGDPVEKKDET
Procedure: as §1

[7] = target: T7, Mouse TrkA Extracellular Domain (33-417 with 396-401 deletion) (mouse, UniProt Q3UFB7 34-417); experiment: SPR, mAb captured on Protein A chip, 37 C
T7 construct: SPR analyte
T7 sequence (Q3UFB7 other isoform, or with tags, fused parts or gaps limits assumed): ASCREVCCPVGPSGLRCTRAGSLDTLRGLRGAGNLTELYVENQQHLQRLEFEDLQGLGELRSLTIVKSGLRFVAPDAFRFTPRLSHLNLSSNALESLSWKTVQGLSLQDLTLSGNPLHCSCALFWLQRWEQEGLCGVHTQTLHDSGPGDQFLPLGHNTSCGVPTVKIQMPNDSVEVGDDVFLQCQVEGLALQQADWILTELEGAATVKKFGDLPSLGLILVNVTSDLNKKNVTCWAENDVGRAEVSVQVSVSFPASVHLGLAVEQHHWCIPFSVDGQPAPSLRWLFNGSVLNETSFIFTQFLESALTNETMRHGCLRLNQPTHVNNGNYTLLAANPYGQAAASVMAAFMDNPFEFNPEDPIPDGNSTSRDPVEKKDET
Procedure: as §1

[8] = target: TrkA on rat NEUROSCREEN-1 cells (pheochromocytoma PC12 subclone) (rat, UniProt P35739 33-799); experiment: cell-based or functional assay
Sequence of TrkA on rat NEUROSCREEN-1 cells (pheochromocytoma PC12 subclone) (P35739 33-799): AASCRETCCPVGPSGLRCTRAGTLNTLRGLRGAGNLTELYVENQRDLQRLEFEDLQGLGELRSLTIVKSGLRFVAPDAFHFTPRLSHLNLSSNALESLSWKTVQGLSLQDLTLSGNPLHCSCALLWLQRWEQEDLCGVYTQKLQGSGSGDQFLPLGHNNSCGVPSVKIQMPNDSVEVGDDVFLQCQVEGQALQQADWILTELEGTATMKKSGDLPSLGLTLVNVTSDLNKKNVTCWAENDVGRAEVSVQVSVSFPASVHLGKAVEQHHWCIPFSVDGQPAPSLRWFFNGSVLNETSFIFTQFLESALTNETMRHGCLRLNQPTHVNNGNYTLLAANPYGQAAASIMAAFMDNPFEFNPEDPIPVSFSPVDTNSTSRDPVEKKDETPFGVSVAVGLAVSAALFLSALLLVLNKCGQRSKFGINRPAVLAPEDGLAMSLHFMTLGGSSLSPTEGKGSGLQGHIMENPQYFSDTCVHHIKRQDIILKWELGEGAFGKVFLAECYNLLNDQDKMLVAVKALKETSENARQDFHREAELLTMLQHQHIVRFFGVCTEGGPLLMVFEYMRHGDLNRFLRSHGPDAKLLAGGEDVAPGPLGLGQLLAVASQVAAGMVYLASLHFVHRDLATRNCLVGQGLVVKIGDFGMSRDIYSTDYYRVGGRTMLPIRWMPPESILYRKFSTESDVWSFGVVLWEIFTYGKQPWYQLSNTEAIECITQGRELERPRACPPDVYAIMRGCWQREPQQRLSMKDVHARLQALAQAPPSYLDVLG

[9] = target: T3, recombinant human TrkA protein; experiment: NGF-blocking ELISA on coated human TrkA, 100 nM btNGF; mAb 0.02 nM
Procedure: Each row of a 96-well high-binding clear-bottom microtiter plate (Microlon, #655061) was coated overnight at 4° C. with 100 μL/well of recombinant human TrkA protein, diluted to 2 μg/mL in phosphate buffered saline, pH 7.2 (PBS). The next day, the coating solution was removed, and the plate was blocked with 150 μL of Casein-PBS (Thermo Scientific, #37528) for 1 hour at 25° C. with gentle shaking. The plate was then washed three times with PBS supplemented with 0.05% Tween20 (PBST). A two-fold dilution series of exemplified antibodies, along with IgG4 and IgG1 isotype control antibodies, was generated starting at 20 nM in Casein-PBS. 100 μL of the each dilution series sample was added to a well for 30 min at 37° C. with gentle shaking. The plate was then washed three times with PBST. […] The plate was then washed three times with PBST. A 1:3500 dilution of a 1 mg/mL stock solution of streptavidin-HRP (Thermo Scientific, #21130) in Casein-PBS was prepared and […] was added to each well for 20 min at 37° C. with gentle shaking. The plate was washed three times with PBST. […] The reaction was stopped by addition of 100 μL of 1M H₃PO₄ to each well. The absorbance at 450 nm (Abs450) was measured using a SpectraMax 340PC plate reader (Molecular Devices).

[10] = target: rat TrkA receptor expressed in transfected HEK293 cells (rat, UniProt P35739 33-799); experiment: cell-based or functional assay
Sequence of rat TrkA receptor expressed in transfected HEK293 cells (P35739 33-799): as above

Binder | Absorbance 450 nm [1] | Kd [2] [nM] | koff [2] [s⁻¹] | kon [2] [M⁻¹ s⁻¹] | Kd [3] [nM] | koff [3] [s⁻¹] | kon [3] [M⁻¹ s⁻¹] | Kd [4] [nM] | koff [4] [s⁻¹] | kon [4] [M⁻¹ s⁻¹] | Kd [5] [nM] | koff [5] [s⁻¹] | kon [5] [M⁻¹ s⁻¹] | Kd [6] [nM] | koff [6] [s⁻¹] | kon [6] [M⁻¹ s⁻¹] | Kd [7] [nM] | koff [7] [s⁻¹] | kon [7] [M⁻¹ s⁻¹] | % Max Stimulation of neurite outgrowth [8] [%] | other results
mAb A (antibody, human IgG4 S228P, kappa, F234A L235A, V domains shown, Human IgG4PAA/Kappa) VH: EVQLVESGGGLVKPGGSLRLSCAASGFTFSGVSINWVRQAPGKGLEWVSSETTSSGTIYYADSVKGRFTISRDNAKNSLYLQMNSLRAEDTAVYYCARSYYYGMDVWGQGTTVTVSS VL: DIVMTQTPLSSPVTLGQPASISCRSSQSLVHRNGNTYLSWLQQRPGQPPRLLIYKISNRFSGVPDRFSGSGAGTDFTLKISRVEAEDVGVYYCMQARQFPLTFGGGTKVEIKR | 0.2 | 2.9 | 0.00061 | 210000 | 3.9 | 0.00069 | 180000 | 5.1 | 0.00069 | 140000 | 3.6 | 0.00069 | 190000 | 4.1 | 0.00072 | 180000 | 6.1 | 0.00069 | 110000 | 7 | IC50, inhibition of NGF-induced neurite outgrowth [8]: 0.1 nM; Absorbance 450 nm [9]: 1.11; % Max Inhibition, pTrkA [10]: 82%; IC50 (nM), pTrkA [10]: 0.57 nM; pTrkA counts per second, NGF +0.1 pM mAb [10]: 1.83e+06 counts per second; pTrkA counts per second, NGF +1 pM mAb [10]: 2.09e+06 counts per second; pTrkA counts per second, NGF +10 pM mAb [10]: 2.2e+06 counts per second; pTrkA counts per second, NGF +100 pM mAb [10]: 1.69e+06 counts per second; pTrkA counts per second, NGF +1 nM mAb [10]: 1.15e+06 counts per second; pTrkA counts per second, NGF +10 nM mAb [10]: 710000 counts per second; pTrkA counts per second, NGF +100 nM mAb [10]: 544000 counts per second; pTrkA counts per second, NGF +1 uM mAb [10]: 580000 counts per second
mAb B (antibody, human IgG4 S228P, kappa, F234A L235A, Human IgG4PAA/Kappa) heavy: not shown light: DIVMTQTPLSSPVTLGQPASISCRSSQSLVHRAGNTYLSWLQQRPGQPPRLLIYKISNRFSGVPDRFSGSGAGTDFTLKISRVEAEDVGVYYCMQARQFPLTFGGGTKVEIKRTVAAPSVFIFPPSDEQLKSGTASVVCLLNNFYPREAKVQWKVDNALQSGNSQESVTEQDSKDSTYSLSSTLTLSKADYEKHKVYACEVTHQGLSSPVTKSFNRGEC | 0.15 | 5 | 0.0011 | 220000 | 6.7 | 0.0013 | 190000 | 9.1 | 0.0012 | 130000 | 6.9 | 0.0013 | 190000 | 6.8 | 0.0013 | 190000 | 10.5 | 0.0012 | 120000 | 10 | IC50, inhibition of NGF-induced neurite outgrowth [8]: 0.07 nM; Absorbance 450 nm [9]: 0.97; % Max Inhibition, pTrkA [10]: 42%; IC50 (nM), pTrkA [10]: 0.72 nM; pTrkA counts per second, NGF +0.1 pM mAb [10]: 4.79e+06 counts per second; pTrkA counts per second, NGF +1 pM mAb [10]: 4.86e+06 counts per second; pTrkA counts per second, NGF +10 pM mAb [10]: 4.46e+06 counts per second; pTrkA counts per second, NGF +100 pM mAb [10]: 5.16e+06 counts per second; pTrkA counts per second, NGF +1 nM mAb [10]: 3.3e+06 counts per second; pTrkA counts per second, NGF +10 nM mAb [10]: 2.87e+06 counts per second; pTrkA counts per second, NGF +100 nM mAb [10]: 2.34e+06 counts per second; pTrkA counts per second, NGF +1 uM mAb [10]: 2.99e+06 counts per second
mAb C (antibody, human IgG4 S228P, kappa, F234A L235A, Human IgG4PAA/Kappa) heavy: not shown light: DIVMTQTPLSSPVTLGQPASISCRSSQSLVHRQGNTYLSWLQQRPGQPPRLLIYKISNRFSGVPDRFSGSGAGTDFTLKISRVEAEDVGVYYCMQARQFPLTFGGGTKVEIKRTVAAPSVFIFPPSDEQLKSGTASVVCLLNNFYPREAKVQWKVDNALQSGNSQESVTEQDSKDSTYSLSSTLTLSKADYEKHKVYACEVTHQGLSSPVTKSFNRGEC | 0.15 | 4.7 | 0.0011 | 220000 | 6.7 | 0.0013 | 200000 | 9 | 0.0012 | 130000 | 6.6 | 0.0013 | 200000 | 6.6 | 0.0013 | 200000 | 10.2 | 0.0012 | 120000 | 7 | IC50, inhibition of NGF-induced neurite outgrowth [8]: 0.06 nM; Absorbance 450 nm [9]: 0.97; % Max Inhibition, pTrkA [10]: 65%; IC50 (nM), pTrkA [10]: 1.6 nM; pTrkA counts per second, NGF +0.1 pM mAb [10]: 3.38e+06 counts per second; pTrkA counts per second, NGF +1 pM mAb [10]: 3.05e+06 counts per second; pTrkA counts per second, NGF +10 pM mAb [10]: 3.68e+06 counts per second; pTrkA counts per second, NGF +100 pM mAb [10]: 2.95e+06 counts per second; pTrkA counts per second, NGF +1 nM mAb [10]: 2.67e+06 counts per second; pTrkA counts per second, NGF +10 nM mAb [10]: 1.53e+06 counts per second; pTrkA counts per second, NGF +100 nM mAb [10]: 1.58e+06 counts per second; pTrkA counts per second, NGF +1 uM mAb [10]: 1.3e+06 counts per second
